Holding throughout (conditions): both partners purified
In one assay the target is T1, JMJD2A tudor domains.
T1 construct: JMJD2A (KDM4A), tudor domains; source: E. coli Rosetta BL21 DE3 pLysS, purified (Ni-NTA, TEV protease, Superdex 75)
T1 sequence (O75164 whole entry, species assumed, looked up): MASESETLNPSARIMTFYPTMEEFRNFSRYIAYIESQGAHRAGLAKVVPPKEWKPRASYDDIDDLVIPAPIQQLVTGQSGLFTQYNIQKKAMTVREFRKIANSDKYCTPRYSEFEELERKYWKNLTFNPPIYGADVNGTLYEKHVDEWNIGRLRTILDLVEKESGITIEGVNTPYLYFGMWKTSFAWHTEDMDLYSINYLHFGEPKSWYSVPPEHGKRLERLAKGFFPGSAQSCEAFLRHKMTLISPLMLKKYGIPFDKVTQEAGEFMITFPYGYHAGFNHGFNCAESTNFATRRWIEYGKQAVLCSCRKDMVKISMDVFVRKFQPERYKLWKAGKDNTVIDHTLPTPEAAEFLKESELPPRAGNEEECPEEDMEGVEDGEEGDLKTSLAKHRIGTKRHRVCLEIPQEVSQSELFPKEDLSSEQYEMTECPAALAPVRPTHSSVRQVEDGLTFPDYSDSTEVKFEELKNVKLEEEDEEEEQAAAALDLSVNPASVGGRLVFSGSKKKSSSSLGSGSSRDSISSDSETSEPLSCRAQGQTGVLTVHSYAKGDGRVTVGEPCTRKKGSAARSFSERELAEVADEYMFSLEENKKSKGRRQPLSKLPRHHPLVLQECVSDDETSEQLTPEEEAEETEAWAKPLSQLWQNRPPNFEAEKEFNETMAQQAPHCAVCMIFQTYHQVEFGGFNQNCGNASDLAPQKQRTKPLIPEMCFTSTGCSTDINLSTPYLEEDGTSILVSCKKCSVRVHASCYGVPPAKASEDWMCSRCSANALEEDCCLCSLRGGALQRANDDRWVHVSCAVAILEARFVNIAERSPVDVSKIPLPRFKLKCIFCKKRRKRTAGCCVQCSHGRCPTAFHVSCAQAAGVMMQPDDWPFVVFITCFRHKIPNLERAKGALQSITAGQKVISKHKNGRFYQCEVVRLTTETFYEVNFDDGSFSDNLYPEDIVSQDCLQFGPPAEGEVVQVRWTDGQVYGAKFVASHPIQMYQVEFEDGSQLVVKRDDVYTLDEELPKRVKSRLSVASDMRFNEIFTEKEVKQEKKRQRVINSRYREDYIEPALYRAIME
Put plainly: ITC; 350–600 μM H3K4me3 or H3C4me3 peptide titrated to 25–40 μM protein (JMJD2A–H3C4me3: 3 mM peptide to 200 μM JMJD2A); 19 injections; Microcal Auto-iTC200; one set of sites model; 5–7 repeats. (In ITC the heat of successive injections is recorded.)

The target of assay [1] is T2, SGF29 tandem tudor domain (for ITC).
T2 construct: SGF29, tandem tudor domain; the crystallisation construct is residues 115-293 of human SGF29; source: E. coli Rosetta BL21 DE3 pLysS, purified (Ni-NTA, TEV protease, Superdex 75)
The assay is described as above.

The target of another assay is T3, BPTF PHD zinc finger.
T3 chain: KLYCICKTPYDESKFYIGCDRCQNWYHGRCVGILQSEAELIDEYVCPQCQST
The description is as above.

In assay [2] the target is T4, JARID1A PHD3 domain (for ITC).
T4 construct: JARID1A (KDM5A), PHD3 domain; cleavage of the tag is told only for JMJD2A, SGF29 and TAF3; also called PHD zinc finger of JARID1A; source: E. coli Rosetta BL21 DE3 pLysS, purified (Ni-NTA or glutathione sepharose beads, Superdex 75)
The description is as above.

Assay [3] deals with T5, TAF3 PHD domain (for ITC).
T5 chain: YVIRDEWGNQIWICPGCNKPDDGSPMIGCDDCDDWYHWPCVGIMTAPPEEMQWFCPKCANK
The assay is described as above.

The target of assay [4] is T5, TAF3 PHD domain (for ITC). The assay can be described thus: ITC; H3G4 (5 mM) titrated to JARID1A (330 μM), H3G4 (3 mM) titrated to TAF3 (200 μM); 19 injections; Microcal Auto-iTC200; one set of sites model.

Our source for the Kd and dH values is paper PMC4673829, “Chemical basis for the recognition of trimethyllysine by epigenetic reader proteins” (Nature Communications, 2015).

Ends that are not written are not given here. Me3 = trimethyllysine (Kme3)

The term Kd denotes the equilibrium constant for the complex coming apart. Low values mean a tighter complex, high ones a looser complex.

T2 sequence (Q96ES7 whole entry, the tested form may be a part): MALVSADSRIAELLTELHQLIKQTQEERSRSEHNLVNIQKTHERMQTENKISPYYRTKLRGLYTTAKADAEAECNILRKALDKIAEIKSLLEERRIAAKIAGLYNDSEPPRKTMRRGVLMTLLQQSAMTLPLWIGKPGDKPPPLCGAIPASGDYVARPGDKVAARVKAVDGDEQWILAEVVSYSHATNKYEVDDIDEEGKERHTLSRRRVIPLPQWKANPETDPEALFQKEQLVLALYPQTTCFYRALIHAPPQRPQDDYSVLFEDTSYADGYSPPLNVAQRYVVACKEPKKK

B1: 10-mer H3C4me3 histone peptide (peptide)
chain: ARTXQTARKS
modifications: Cme3 (neutral carba analogue of trimethyllysine, tert-butyl in place of trimethylammonium) at position 4; carboxylic acid at the C terminus
Take B1: the Kd amounted to 16 µM in the assay with JMJD2A tudor domains; 1.4 µM in assay [1]; 0.76 µM with BPTF PHD zinc finger; 0.34 µM in assay [2]; 0.79 µM in assay [3]. For the same molecule, the dH in the assay with JMJD2A tudor domains was -33.9 ± 0.418 kJ/mol; in assay [1], -33.1 ± 0.418 kJ/mol; in the assay with BPTF PHD zinc finger, -41.8 ± 0.837 kJ/mol; in assay [2], -31 ± 0.418 kJ/mol; in assay [3] it was -21.8 ± 0.418 kJ/mol.

B2: 10-mer H3K4me3 histone peptide (peptide)
peptide: ARTK(Me3)QTARKS-OH
notes: histone H3, residues 1-10, with Kme3 at the fourth position; Peptides appear as TFA salts; also called H3(1-10)K4me3; source: synthetic peptide (solid-phase synthesis, Fmoc chemistry, preparative HPLC)
In the assay with BPTF PHD zinc finger, B2 came in with a Kd of 0.49 µM and a dH of -54.81 ± 0.418 kJ/mol. In assay [3], binding was characterised by a dissociation constant (Kd) of 0.024 µM and the dH is -45.61 ± 0.418 kJ/mol.

B3: 10-mer H3G4 histone peptide (peptide)
peptide: ARTGQTARKS-OH
notes: source: synthetic peptide (solid-phase synthesis, Fmoc chemistry, preparative HPLC)
In assay [4], B3 yielded a Kd of 36 µM and a dH of -10.5 kJ/mol.
